Values of other authors, collected in paper PMC9252436.

Target: CD47 (Homo sapiens) (UniProt Q08722)
UniProt Q08722, sequence (Q08722 19-323): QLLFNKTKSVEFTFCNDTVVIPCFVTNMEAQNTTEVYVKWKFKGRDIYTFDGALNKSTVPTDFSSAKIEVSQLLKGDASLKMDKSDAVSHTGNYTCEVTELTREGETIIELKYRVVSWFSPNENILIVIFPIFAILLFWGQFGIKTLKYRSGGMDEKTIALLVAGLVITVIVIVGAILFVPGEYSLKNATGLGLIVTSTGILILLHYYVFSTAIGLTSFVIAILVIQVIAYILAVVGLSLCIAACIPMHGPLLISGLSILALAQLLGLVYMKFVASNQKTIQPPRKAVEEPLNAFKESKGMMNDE

Kd: 16 nM
Substance: SIRPα (from UniProt P78324)
